# Laboratory results reported in publication PMC3410435 (Structure (London, England : 1993), 2012).
# Biological target: the molecule itself
# Test: SEC
protein,measurement,value
"PdeA(R69A) (enzyme, Caulobacter crescentus, UniProt Q9A310 1-555, looked up) MSFRTGERRIWDATATLEALGAADVALWIWEPETDRLRLNGAARALGLGPLAPECSSAAFRALALPQDAAQAEEVLKPREPGSEVVARFRVRGGETCLWRGVWLEEGVRAAGVVAPETKFSASELCDLTGLLDRRSFLARARERLAQEGTHQLVVADLDRLRRLNEALGHERADLVLAALGSRLAAAFPAQSILGRIGEDEFAVLCQPLGYEPSDVLRSALEQPLRVAGFDIHPTLSIGAVSAEGGLDAPDAAELLRRAELAVEAAAAAGRGGAAAYGRAMETDGLSRLALEADLRGAIGRGEITPYFQPIVRLSTGALSGFEALARWIHPRRGMLPPDEFLPLIEEMGLMSELGAHMMHAAAQQLSTWRAAHPAMGNLTVSVNLSTGEIDRPGLVADVAETLRVNRLPRGALKLEVTESDIMRDPERAAVILKTLRDAGAGLALDDFGTGFSSLSYLTRLPFDTLKIDRYFVRTMGNNAGSAKIVRSVVKLGQDLDLEVVAEGVENAEMAHALQSLGCDYGQGFGYAPALSPQEAEVYLNEAYVDGAAPVKARG",stoichiometry N,2
